Measured values reported in PMC7852052.

What was measured:
TNFR1-Fc = TNFR1-Fc (UniProt P25118); experiment: BLI
TNFR2-Fc = TNFR2-Fc (UniProt P25119); experiment: BLI
Chain of UniProt P25119 (P25119 23-258): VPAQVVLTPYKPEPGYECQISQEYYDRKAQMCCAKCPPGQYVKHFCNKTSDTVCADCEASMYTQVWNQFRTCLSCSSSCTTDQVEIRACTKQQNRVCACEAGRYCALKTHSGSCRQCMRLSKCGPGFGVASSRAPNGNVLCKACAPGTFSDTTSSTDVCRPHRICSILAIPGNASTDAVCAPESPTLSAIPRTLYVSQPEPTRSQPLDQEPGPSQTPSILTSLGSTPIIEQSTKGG

Chain of UniProt P25118 (P25118 30-212): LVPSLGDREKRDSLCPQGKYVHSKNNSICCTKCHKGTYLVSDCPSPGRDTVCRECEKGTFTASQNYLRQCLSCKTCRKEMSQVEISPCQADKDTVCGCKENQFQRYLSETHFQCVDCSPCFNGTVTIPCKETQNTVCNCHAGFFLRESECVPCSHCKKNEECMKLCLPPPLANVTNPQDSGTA

Kd (TNFR1-Fc)	Kd (TNFR2-Fc)	Substance
0.526 nM	2.45 nM	mutated NGR-TNFα with valine at the start of TNFα (NGR-TNFα-V)
0.326 nM	1.86 nM	mutated murine TNFα with valine at the start (TNFα-V) (ligand)
0.741 nM	4.63 nM	native NGR-TNFα with leucine at the start of TNFα (NGR-TNFα-L)
0.309 nM	2.1 nM	native murine TNFα with leucine at the start (TNFα-L) (ligand)
